Reference: patent US20060288448

T1: β-casein, P02666
T1 chain: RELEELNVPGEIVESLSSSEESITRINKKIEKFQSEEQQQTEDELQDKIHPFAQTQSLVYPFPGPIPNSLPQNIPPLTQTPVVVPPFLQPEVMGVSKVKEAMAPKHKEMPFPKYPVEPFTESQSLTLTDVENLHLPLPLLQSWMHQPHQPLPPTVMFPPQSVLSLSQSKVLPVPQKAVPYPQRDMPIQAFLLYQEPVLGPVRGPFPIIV

T2: Angiogenin peptide (Bachem), P03950 (not fully specified)
T2 chain: ENGLPVHLDQSIFRR

B1: iwm2s.pk015.c9 cathepsin L-like protease of western corn rootworm midgut (protein)
chain: MKLLILAATLIVAINANLSAFEQWTSFKATHNKFYNVIEDKLRFAVFQENLRKIDAHNAKYEKGEETYYMAVNKFADWSSAEFQAMLDRQMANKPKQSFIAKHVVDPNVQAVEEVDWRESAVLGVKDQGQCGSCWAFSTTGSLEGQLAIHKNQRVPLSEQELVDCDKVNDGCDGGLMTDAFFYIEHHGLSSEEQYPYTGVDGHCNHVKDKQVSSISGYVELDETESALADALANVGPVSIAVEADTWQFYSGGVFNNKNCGDALNHGVLAVGYTKDVFIVKNSWGTGWGEQGYIRVARGSNLCGINLMNSYPKL
B2: iwm2s.pk017.h10 cathepsin L-like protease of western corn rootworm midgut (protein)
chain: MKLFILAAALIVATSANLGAFEKWTSFKATHNKSYNVIEDKLRFAVFQDNLKKIEEHNAKYESGEETYYLAVNKFADWSSAEFQAMLARQMANKPKQSFIAKHVADPNVQAVEEVDWRDSAVLGVKDQGQCGSCWAFSTTGSLEGQLAIHKNQRVPLSEQELVDCDTSRNAGCNGGLMTDAFNYVKRHGLSSESQYAYTGRDDRCKNVENKPLSSISGYVELETTEDALASAVASVGPVSIAVDADTWQLYGGGLFNNKNCRTNLNHGVLAVGYTKDAFIVKNSWGTSWGEQGYIRVARGENLCGINLMNSYPKL

Columns and labels:
β-casein, P02666 = target: T1, β-casein, P02666
[1] = target: T2, Angiogenin peptide (Bachem), P03950

Sequence of κ-casein, P02668 (P02668 22-190): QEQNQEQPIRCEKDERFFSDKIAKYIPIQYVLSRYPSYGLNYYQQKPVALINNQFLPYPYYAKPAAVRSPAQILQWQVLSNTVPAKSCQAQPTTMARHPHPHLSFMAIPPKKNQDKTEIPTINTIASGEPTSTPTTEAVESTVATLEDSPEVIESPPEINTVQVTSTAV

Protein | proteolytic digestion time course (SDS-PAGE, N-terminal sequencing) (β-casein, P02666) | proteolytic digestion, cleavage site mapping (κ-casein, P02668) | proteolytic digestion for 30 or 60 min (LC-MS, N-terminal sequencing) [1]
B1 | The time course of β-casein digestion by c9 showed a major ˜19 kD digestion product (indicated by black arrowhead) by 2 minutes after addition of enzyme | κ-casein was also digested with c9 and h10 ... major detectable cleavage sites were observed after Ser54, Asp62, Serl25, and Met127 | after 30 min two distinct pairs of cleavage products were detected that corresponded to cleavage immediately N-terminal to Leu8 or to Gln10
B2 | – | κ-casein was also digested with c9 and h10 ... major detectable cleavage sites were observed after Ser54, Asp62, Serl25, and Met127 | –
